Experiment [1] concerns the target SARS-CoV spike protein, recombinant soluble ectodomain trimer (SARS-CoV) (UniProt P59594). In words: SEC. For orientation: In gel filtration, larger molecules generally elute earlier.
In experiment [2] the target is MERS-CoV spike protein, recombinant soluble ectodomain trimer (MERS-CoV) (UniProt K9N5Q8). In words: SEC.

As usually defined, the stoichiometry N is the number of molecules, sites or subunits per partner or assembly. For “SARS-CoV spike protein, recombinant soluble ectodomain trimer (from UniProt P59594 14-1195) (domain or fragment)”, the stoichiometry N in experiment [1] amounted to 3.

Consider “MERS-CoV spike protein, recombinant soluble ectodomain trimer (from UniProt K9N5Q8 18-1296) (domain or fragment)”, for which, in experiment [2], the stoichiometry N worked out at 3.
